Measurements published in US20090081226A1.
One block for each substance: values may come before it.

How the values were obtained:
[1] = target: membrane-bound HLA-E (human); test: cell-based or functional assay
[2] = target: membrane-bound HLA-E (human); test: flow cytometry on short term cultured melanocytes
[3] = target: membrane-bound HLA-E (human); test: flow cytometry on a panel of 22 melanoma cell lines
[4] = target: CD94/NKG2A receptor (human) (UniProt Q13241); test: cell-based or functional assay
Chain of UniProt Q13241 (Q13241 other isoform, or with tags, fused parts or gaps, chain 1 of 2): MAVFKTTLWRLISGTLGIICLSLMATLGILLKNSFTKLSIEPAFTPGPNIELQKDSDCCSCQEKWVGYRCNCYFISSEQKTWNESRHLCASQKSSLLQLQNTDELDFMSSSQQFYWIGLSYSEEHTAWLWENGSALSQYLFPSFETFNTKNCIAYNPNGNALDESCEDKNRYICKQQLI
Chain of UniProt Q13241 (chain, as listed by the source, chain 2 of 2): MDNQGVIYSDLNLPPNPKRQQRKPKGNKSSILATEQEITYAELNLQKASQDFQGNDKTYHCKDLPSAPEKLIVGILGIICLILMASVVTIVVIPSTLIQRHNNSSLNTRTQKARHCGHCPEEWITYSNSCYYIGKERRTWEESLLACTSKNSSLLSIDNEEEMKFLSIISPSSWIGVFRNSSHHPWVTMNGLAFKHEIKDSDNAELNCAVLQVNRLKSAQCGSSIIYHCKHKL

Substance: anti-HLA-E mAb MEM-E/06 (antibody)
- NK-mediated cytotoxicity, specific lysis (51Cr release) of IFNγ-activated HAEC (% specific lysis) [1]: 34.9

- ratio fluorescence intensity (RFI) (ratio (MFI test / MFI negative control)) [2]: 3 to 7
- ratio fluorescence intensity (RFI) (ratio (MFI test / MFI negative control)) [3]: 1 to 4
Substance: anti-HLA-E mAb MEM-E/07 (antibody)

Substance: membrane-bound HLA-E (from UniProt P61769 21-119) (peptide-MHC)
- NK-mediated cytotoxicity, specific lysis (51Cr release) of ECs (% specific lysis) [4]: 2.6
